The target in assay [1] is T1, human ACKR4-EYFP (human) (UniProt Q9NPB9).
T1 sequence: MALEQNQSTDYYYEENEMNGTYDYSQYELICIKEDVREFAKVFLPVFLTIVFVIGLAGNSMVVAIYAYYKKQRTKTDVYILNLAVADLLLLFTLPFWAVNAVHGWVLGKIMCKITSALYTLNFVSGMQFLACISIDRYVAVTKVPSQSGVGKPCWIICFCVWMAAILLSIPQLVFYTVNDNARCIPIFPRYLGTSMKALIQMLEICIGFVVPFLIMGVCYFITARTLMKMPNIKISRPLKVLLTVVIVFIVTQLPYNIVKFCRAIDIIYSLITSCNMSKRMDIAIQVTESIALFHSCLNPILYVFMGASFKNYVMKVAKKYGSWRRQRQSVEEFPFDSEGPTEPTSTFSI

The target in assay [2] is T1, human ACKR4-EYFP (human). This is another data set of the same source.

The values below come from PMC7188906.

In the assay with human ACKR4-EYFP (human) [1], “recombinant human CCL19 (from UniProt Q99731 22-98) (ligand)” had an EC50 of β-arrestin1-Nluc recruitment to ACKR4-EYFP (BRET, HeLa cells, graded chemokine) of 76 nM and an EC50 of β-arrestin2-Nluc recruitment to ACKR4-EYFP (BRET, HeLa cells, graded chemokine) of 32 nM. In the assay with human ACKR4-EYFP (human) [2], this substance returned an EC50 of GRK2-Nluc recruitment to ACKR4-EYFP (BRET, HeLa cells, dose-response) of 35 nM and an EC50 of GRK3-Nluc recruitment to ACKR4-EYFP (BRET, HeLa cells, dose-response) of 42 nM.
The corresponding values for “recombinant human CCL21 (from UniProt O00585 24-134) (ligand)” are 240 nM, 133 nM, 129 nM and 142 nM.
The corresponding values for “recombinant human CCL25 (from UniProt O15444 24-150) (ligand)” are 115 nM, 130 nM, 87 nM and 147 nM.
